Seven molecules from publication PMC2323325, “Conserved Regulation of MAP Kinase Expression by PUF RNA-Binding Proteins” can be followed below.

In general, Kd refers to the equilibrium constant for the complex coming apart.

The target in one series is PUM2 (Homo sapiens, UniProt Q8TB72 706-1048). In words: EMSA; Not stated; gel shift assays performed as described in ref 49. The settings on record: protein: recombinant. In general terms: A gel shift assay detects complexes by their altered migration in electrophoresis.
Sequence of PUM2 (Q8TB72 706-1048): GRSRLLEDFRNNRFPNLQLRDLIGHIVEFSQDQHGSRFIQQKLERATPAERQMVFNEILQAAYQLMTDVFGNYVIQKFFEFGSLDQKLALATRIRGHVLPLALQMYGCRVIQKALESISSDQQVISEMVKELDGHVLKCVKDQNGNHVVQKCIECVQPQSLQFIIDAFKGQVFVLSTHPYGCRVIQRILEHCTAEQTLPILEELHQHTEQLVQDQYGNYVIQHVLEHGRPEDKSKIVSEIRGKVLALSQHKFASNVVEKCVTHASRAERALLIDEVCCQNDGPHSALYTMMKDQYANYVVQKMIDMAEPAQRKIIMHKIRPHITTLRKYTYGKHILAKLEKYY
The target in a further series is T1, FBF-2 (Caenorhabditis elegans, UniProt Q09312 162-566).
T1 sequence: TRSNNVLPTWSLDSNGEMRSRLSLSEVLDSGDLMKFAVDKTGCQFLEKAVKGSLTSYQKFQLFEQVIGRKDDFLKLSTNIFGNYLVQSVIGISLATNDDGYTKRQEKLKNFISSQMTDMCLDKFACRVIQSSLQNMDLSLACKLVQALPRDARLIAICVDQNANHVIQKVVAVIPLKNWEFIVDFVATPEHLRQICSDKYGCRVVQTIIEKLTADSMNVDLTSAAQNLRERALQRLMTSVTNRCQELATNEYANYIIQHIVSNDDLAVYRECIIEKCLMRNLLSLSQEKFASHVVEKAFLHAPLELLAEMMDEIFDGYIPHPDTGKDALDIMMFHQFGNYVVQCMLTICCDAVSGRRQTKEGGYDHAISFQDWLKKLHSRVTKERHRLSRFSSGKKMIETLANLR
Described as above. The settings on record: protein: recombinant.

B1: Erk2 NRE (ssRNA)
RNA: UUCAUGAAAAUAAAUGUACAUCUUCUAU
As to B1, the binding result with PUM2 is listed as “binds”.

B2: mpk-1 FBEa* (ssRNA)
RNA: AGUUUCUUUUUCGAACAAUCAUAAUCCA
Regarding B2, the binding result with FBF-2 is reported as “no binding”.

B3: mpk-1 FBEa (ssRNA)
RNA: AGUUUCUUUUUCGAUGUAUCAUAAUCCA
Take B3: the Kd in the series with FBF-2 is around 93 nM.

B4: p38alpha NREa (ssRNA)
RNA: AGUAUAUUUGAAACUGUAAAUAUGUUUG
In the case of B4, the binding result with PUM2 is recorded as “binds”.

B5: p38alpha NREb (ssRNA)
RNA: AGGAGAGAAGAAAGUGUAGAUAGUUAAA
In the case of B5, in the series with PUM2, the binding result was “binds”.

B6: mpk-1 FBEb* (ssRNA)
RNA: UAUUUUACGUAUUUACAAAUAUAUUCAU
Consider B6, for which, in the series with FBF-2, the binding result is recorded as “no binding”.

B7: mpk-1 FBEb (ssRNA)
RNA: UAUUUUACGUAUUUUGUAAUAUAUUCAU
In the case of B7, the Kd in the series with FBF-2 is around 320 nM.
